Results published in patent US20220089695A1 (NEW YORK UNIVERSITY, published 2022).

How the values were obtained:
[1] = target: Recombinant SARS-CoV-2-S1 protein with His tag (SARS-CoV-2, UniProt P0DTC2 16-685)
[2] = target: T1, Fc-tagged SARS-CoV-2 S2 subunit (SARS-CoV-2; human, UniProt P0DTC2 686-1213); assay: CDS imaging on HEK293T cells expressing DC-SIGN, anti-human Fc detection
T1 construct: domain: S2

[3] = target: T1, Fc-tagged SARS-CoV-2 S2 subunit; assay: CDS imaging on HEK293T cells expressing L-SIGN, anti-human Fc detection
[4] = target: T1, Fc-tagged SARS-CoV-2 S2 subunit; assay: CDS imaging on HEK293T cells expressing LSECtin, anti-human Fc detection
[5] = target: T2, Human IgG1 Fc-tagged SARS-CoV-2 S receptor-binding domain (SARS-CoV-2; human, UniProt P0DTC2 319-541); assay: Fc-tagged protein on receptor-expressing HEK293T cells (FIG. 13B)
T2 construct: domain: RBD

[6] = target: Human IgG1 Fc-tagged SARS-CoV-2 Spike (S) recombinant protein (SARS-CoV-2; human, UniProt P0DTC2 16-1213); assay: Fc-tagged protein on receptor-transfected HEK293T cells, CDS imaging
[7] = target: T3, Fc-tagged SARS-CoV-2 S N-terminal domain (SARS-CoV-2; human, UniProt P0DTC2 14-305); assay: Fc-tagged S domain on receptor-transfected HEK293T cells, CDS imaging
T3 construct: domain: NTD

[8] = target: SARS-CoV-2 S protein displayed on lentiviral (HIV-GFP) pseudovirus (SARS-CoV-2, UniProt P0DTC2 14-1273); assay: pseudovirus on transfected HEK293T cells on ice, anti-S staining, flow cytometry

B1: Recombinant DC-SIGN (CD209) with human Fc tag (Fc fusion)
chain: QVSKVPSSISQEQSRQDAIYQNLTQLKAAVGELSEKSKLQEIYQELTQLKAAVGELPEKSKLQEIYQELTRLKAAVGELPEKSKLQEIYQELTWLKAAVGELPEKSKMQEIYQELTRLKAAVGELPEKSKQQEIYQELTRLKAAVGELPEKSKQQEIYQELTRLKAAVGELPEKSKQQEIYQELTQLKAAVERLCHPCPWEWTFFQGNCYFMSNSQRNWHDSITACKEVGAQLVVIKSAEEQNFLQLQSSRSNRFTWMGLSDLNQEGTWQWVDGSPLLPSFKQYWNRGEPNNVGEEDCAEFSGNGWNDDKCNLAKFWICKKSAASCSRDEEQFLSPAPATPNPPPA
For B1, which “EC50 (read off the curve)” value [1] is on record?
The value was ~0.8 µg/mL.

B2: Dendritic cell-specific intercellular adhesion molecule-3-grabbing nonintegrin expressed on cells (receptor)
chain: MSDSKEPRLQQLGLLEEEQLRGLGFRQTRGYKSLAGCLGHGPLVLQLLSFTLLAGLLVQVSKVPSSISQEQSRQDAIYQNLTQLKAAVGELSEKSKLQEIYQELTQLKAAVGELPEKSKLQEIYQELTRLKAAVGELPEKSKLQEIYQELTWLKAAVGELPEKSKMQEIYQELTRLKAAVGELPEKSKQQEIYQELTRLKAAVGELPEKSKQQEIYQELTRLKAAVGELPEKSKQQEIYQELTQLKAAVERLCHPCPWEWTFFQGNCYFMSNSQRNWHDSITACKEVGAQLVVIKSAEEQNFLQLQSSRSNRFTWMGLSDLNQEGTWQWVDGSPLLPSFKQYWNRGEPNNVGEEDCAEFSGNGWNDDKCNLAKFWICKKSAASCSRDEEQFLSPAPATPNPPPA
notes: whole, on cells; also called DC-SIGN; CD209
Does B2 bind [2]?
Result: binds

B3: Liver/lymph node-specific intercellular adhesion molecule-3-grabbing integrin expressed on cells (receptor)
chain: MSDSKEPRVQQLGLLEEDPTTSGIRLFPRDFQFQQIHGHKSSTGCLGHGALVLQLLSFMLLAGVLVAILVQVSKVPSSLSQEQSEQDAIYQNLTQLKAAVGELSEKSKLQEIYQELTQLKAAVGELPEKSKLQEIYQELTRLKAAVGELPEKSKLQEIYQELTRLKAAVGELPEKSKLQEIYQELTRLKAAVGELPEKSKLQEIYQELTELKAAVGELPEKSKLQEIYQELTQLKAAVGELPDQSKQQQIYQELTDLKTAFERLCRHCPKDWTFFQGNCYFMSNSQRNWHDSVTACQEVRAQLVVIKTAEEQNFLQLQTSRSNRFSWMGLSDLNQEGTWQWVDGSPLSPSFQRYWNSGEPNNSGNEDCAEFSGSGWNDNRCDVDNYWICKKPAACFRDE
notes: whole, on cells; also called L-SIGN; CLEC4M
Does B3 bind [3]?
Result: binds

B4: Liver and lymph node sinusoidal endothelial cell C-type lectin expressed on cells (receptor)
chain: MDTTRYSKWGGSSEEVPGGPWGRWVHWSRRPLFLALAVLVTTVLWAVILSILLSKASTERAALLDGHDLLRTNASKQTAALGALKEEVGDCHSCCSGTQAQLQTTRAELGEAQAKLMEQESALRELRERVTQGLAEAGRGREDVRTELFRALEAVRLQNNSCEPCPTSWLSFEGSCYFFSVPKTTWAAAQDHCADASAHLVIVGGLDEQGFLTRNTRGRGYWLGLRAVRHLGKVQGYQWVDGVSLSFSHWNQGEPNDAWGRENCVMMLHTGLWNDAPCDSEKDGWICEKRHNC
notes: whole, on cells; also called LSECtin; CLEC4G
Does B4 bind [4]?
Result: binds

B5: Tweety Family Member 2 expressed on cells (receptor)
chain: MQAARVDYIAPWWVVWLHSVPHVGLRLQPVNSTFSPGDESYQESLLFLGLVAAVCLGLNLIFLVAYLVCACHCRRDDAVQTKQHHSCCITWTAVVAGLICCAAVGVGFYGNSETNDGAYQLMYSLDDANHTFSGIDALVSGTTQKMKVDLEQHLARLSEIFAARGDYLQTLKFIQQMAGSVVVQLSGLPVWREVTMELTKLSDQTGYVEYYRWLSYLLLFILDLVICLIACLGLAKRSKCLLASMLCCGALSLLLSWASLAADGSAAVATSDFCVAPDTFILNVTEGQISTEVTRYYLYCSQSGSSPFQQTLTTFQRALTTMQIQVAGLLQFAVPLFSTAEEDLLAIQLLLNSSESSLHQLTAMVDCRGLHKDYLDALAGICYDGLQGLLYLGLFSFLAALAFSTMICAGPRAWKHFTTRNRDYDDIDDDDPFNPQAWRMAAHSPPRGQLHSFCSYSSGLGSQTSLQPPAQTISNAPVSEYMNQAMLFGRNPRYENVPLIGRASPPPTYSPSMRATYLSVADEHLRHYGNQFPA
notes: whole, on cells; also called TTYH2; TTHY2
Does B5 bind [5]?
Result: binds

B6: Asialoglycoprotein Receptor 1 expressed on cells (receptor)
chain: MTKEYQDLQHLDNEESDHHQLRKGPPPPQPLLQRLCSGPRLLLLSLGLSLLLLVVVCVIGSQNSQLQEELRGLRETFSNFTASTEAQVKGLSTQGGNVGRKMKSLESQLEKQQKDLSEDHSSLLLHVKQFVSDLRSLSCQMAALQGNGSERTCCPVNWVEHERSCYWFSRSGKAWADADNYCRLEDAHLVVVTSWEEQKFVQHHIGPVNTWMGLHDQNGPWKWVDGTDYETGFKNWRPEQPDDWYGHGLGGGEDCAHFTDDGRWNDDVCQRPYRWVCETELDKASQEPPLL
notes: whole, on cells; also called ASGR1
Does B6 bind [6]?
Result: binds

Does B6 bind [7]?
Result: binds

Does B6 bind [8]?
Result: binds

B7: C-type lectin domain family 10 member A expressed on cells (receptor)
chain: MTRTYENFQYLENKVKVQGFKNGPLPLQSLLQRLCSGPCHLLLSLGLGLLLLVIICVVGFQNSKFQRDLVTLRTDFSNFTSNTVAEIQALTSQGSSLEETIASLKAEVEGFKQERQAGVSELQEHTTQKAHLGHCPHCPSVCVPVHSEMLLRVQQLVQDLKKLTCQVATLNNNASTEGTCCPVNWVEHQDSCYWFSHSGMSWAEAEKYCQLKNAHLVVINSREEQNFVQKYLGSAYTWMGLSDPEGAWKWVDGTDYATGFQNWKPGQPDDWQGHGLGGGEDCAHFHPDGRWNDDVCQRPYHWVCEAGLGQTSQESH
notes: whole, on cells; also called CLEC10A
Does B7 bind [6]?
Result: binds

Does B7 bind [8]?
Result: binds
